Experimental data from patent US20220153821A1 (PROTHENA BIOSCIENCES, published 2022).
Substitutions are numbered along the chain they refer to. Blank lines part the entries; values can stand above or below the binder they belong to.

Columns and labels:
recombinant human tau [1] = target: recombinant human tau (human, UniProt P10636 1-383); experiment: SPR, Biacore T200: antibody captured on anti-mouse CM5 chip, recombinant human tau 10-0.14 nM as analyte, global 1:1 fit
Description: (§1) Methods: SPR analysis was performed using a Biacore T200 to determine the binding kinetics of murine antibodies to recombinant human tau. To prepare a sensor surface, anti-mouse antibody (GE Life Sciences) was immobilized on sensor chip CM5 via amine coupling, and antibody was captured at a level to ensure maximum binding of 50 RU. Various concentrations of recombinant tau ranging from 10-0.14 nM were passed over the captured ligand at a flow rate of 50 μL/min in running buffer (HBS+0.05% P-20, 1 mg/mL BSA), for 180 sec association and 900 sec dissociation. Data were double-referenced to both an irrelevant sensor not containing antibody ligand, and 0 nM analyte concentration to account for the dissociation of ligand from the capture moiety. Data was then analyzed using a global 1:1 fit.
(§2) Results: Multiple murine antibodies were selected based on their performance in a battery of ELISA assays, and their binding affinities were assessed via SPR. Antibodies were tested in parallel sets, and their binding association and dissociation rates were compared to select the highest binder to recombinant human tau.

recombinant human tau [2] = target: T1, recombinant human tau (human, UniProt P10636-6 1-383, limits assumed); experiment: SPR, Biacore T200, antibody captured by anti-human antibody, tau as analyte, single cycle, 1:1 fit
T1 construct: also called recombinant tau
T1 sequence (P10636 other isoform, or with tags, fused parts or gaps limits assumed): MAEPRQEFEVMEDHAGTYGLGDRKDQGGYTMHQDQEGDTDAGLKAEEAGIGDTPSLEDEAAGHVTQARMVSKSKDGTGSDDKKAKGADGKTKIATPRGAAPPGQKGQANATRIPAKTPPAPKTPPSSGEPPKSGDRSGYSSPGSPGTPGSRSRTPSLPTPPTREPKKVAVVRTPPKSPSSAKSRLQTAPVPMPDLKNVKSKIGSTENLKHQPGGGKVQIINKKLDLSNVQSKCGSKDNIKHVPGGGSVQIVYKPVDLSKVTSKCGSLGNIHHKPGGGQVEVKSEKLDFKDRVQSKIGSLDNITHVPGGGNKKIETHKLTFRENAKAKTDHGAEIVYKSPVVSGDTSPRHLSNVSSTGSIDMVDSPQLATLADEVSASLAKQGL
Description: Affinity of purified humanized variants to tau were determined by surface plasmon resonance (SPR). SPR analysis was performed using a Biacore T200 to determine the binding kinetics of humanized antibodies to recombinant human tau. To prepare a sensor surface, anti-human antibody (GE Life Sciences) was immobilized on sensor chip CM3 via amine coupling, and antibody was captured at a level to ensure maximum binding of 50 RU. Various concentrations of recombinant tau ranging from 50-0.62 nM were passed over the captured ligand at a flow rate of 50 μL/min in running buffer (HBS+0.05% P-20, 1 mg/mL BSA), in a single cycle manner. Data were double-referenced to both an irrelevant sensor not containing antibody ligand, and 0 nM analyte concentration to account for the dissociation of ligand from the capture moiety. Data were then analyzed using a 1:1 fit. Results are presented in Table 9, in columns labeled “k₀ (M⁻¹s⁻¹), koff (s⁻¹), and Kd (nM).”

recombinant human tau [3] = target: T1, recombinant human tau; experiment: SPR, Biacore T200: antibody captured on anti-mouse CM5 chip, recombinant human tau 10-0.14 nM as analyte, global 1:1 fit
Description: as §1, §2

Sequence of recombinant human tau (human, UniProt P10636 1-383) (P10636 other isoform, or with tags, fused parts or gaps): as the sequence (P10636 other isoform, or with tags, fused parts or gaps limits assumed) above

- Kd (recombinant human tau [1]): 6780 pM
- koff (recombinant human tau [1]): 0.00254 s⁻¹
- kon (recombinant human tau [1]): 375000 M⁻¹ s⁻¹
B1: anti-tau antibody 5G8 (antibody, V domains shown)
VH: EVQLQQSGAELVRSGASVRLSCTASGFNIKDYYMHWVRQRPEQGLEWIGWIDPENGDTVYAPKFQGKATMTSDTSSNTAYLHLSSLTSEDTAVYYCSPLDFWGQGTTLTVSS
VL: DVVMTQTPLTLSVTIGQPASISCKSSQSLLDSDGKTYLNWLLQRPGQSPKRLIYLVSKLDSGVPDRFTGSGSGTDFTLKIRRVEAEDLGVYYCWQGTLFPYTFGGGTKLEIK

- Kd (recombinant human tau [2]): 640 pM
- koff (recombinant human tau [2]): 0.0009 s⁻¹
- kon (recombinant human tau [2]): 1.4e+06 M⁻¹ s⁻¹
B2: Hu3D6VHvb1 / Hu3D6VLvb1 (antibody, V domains shown)
VH: QVQLQQSGAELVKPGASVKLSCTASGFNIKDYYLHWVKQRPEQGLEWIGWIDPENGDTVYDPKFQGKATITADTSSNTAYLQLSSLTSEDTAVYFCSTLDFWGQGTTLTVSS
VL: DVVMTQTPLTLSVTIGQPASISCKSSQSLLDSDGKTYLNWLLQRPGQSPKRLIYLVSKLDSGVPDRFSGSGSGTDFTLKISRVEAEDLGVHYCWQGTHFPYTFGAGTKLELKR
notes: Humanized 3D6 variant, transiently expressed as intact antibody in HEK-293 cells; also called VHvb1/VLvb1

- Kd (recombinant human tau [1]): 3800 pM
- koff (recombinant human tau [1]): 0.00227 s⁻¹
- kon (recombinant human tau [1]): 599000 M⁻¹ s⁻¹
B3: 8A4 (antibody, V domains shown)
VH: B2 VH with Q1E, K13R, S17L, T23K, L34I, K63Q, G66D, T69N, D90G, F95Y
VL: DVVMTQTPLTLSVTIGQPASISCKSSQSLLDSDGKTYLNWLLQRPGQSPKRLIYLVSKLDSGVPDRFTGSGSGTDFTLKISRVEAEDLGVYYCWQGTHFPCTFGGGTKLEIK

- Kd (recombinant human tau [3]): 460 pM
- koff (recombinant human tau [3]): 0.00119 s⁻¹
- kon (recombinant human tau [3]): 2.58e+06 M⁻¹ s⁻¹
B4: mouse 3D6 antibody (antibody, V domains shown)
VH: B2 VH with Q1E, E10D, K13R, S17L, T23K, K38R, S84G
VL: not shown
notes: Mouse monoclonal antibody from hybridoma; also called murine 3D6; m3D6

- Kd (recombinant human tau [2]): 4200 pM
- koff (recombinant human tau [2]): 0.0029 s⁻¹
- kon (recombinant human tau [2]): 690000 M⁻¹ s⁻¹
B5: Hu3D6VHvb4 / Hu3D6VLvb2 (antibody, V domains shown)
VH: EVQLVQSGAEVVKPGATVKISCKASGFTIKDYYLHWVRQRPGKGLEWIGWIDPENGDTIYDPKFQGRVTITADTSTDTAYMELSSLRSEDTAVYYCSTLDFWGQGTLVTVSS
VL: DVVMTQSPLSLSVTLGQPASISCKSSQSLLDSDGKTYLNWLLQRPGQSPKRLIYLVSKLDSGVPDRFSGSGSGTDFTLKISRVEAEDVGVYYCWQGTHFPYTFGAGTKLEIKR
notes: Humanized 3D6 variant, expressed as intact antibody in HEK-293 cells; also called VHvb4/VLvb2

- Kd (recombinant human tau [2]): 190 pM
- koff (recombinant human tau [2]): 0.0003 s⁻¹
- kon (recombinant human tau [2]): 1.6e+06 M⁻¹ s⁻¹
B6: Hu3D6VHvb2 / Hu3D6VLvb3 (antibody, V domains shown)
VH: B5 VH with T17S, T28N, I59V, V68A, M81L, R87T, Y95F
VL: DVVMTQSPLSLSVTLGEPASISCRSSQSLLDSDGKTYLNWLQQRPGQSPRRLIYLVSKLDSGVPDRFSGSGSGTDFTLKISRVEAEDVGVYYCWQGTHFPYTFGQGTKLEIKR
notes: Humanized 3D6 variant, expressed as intact antibody in HEK-293 cells; also called VHvb2/VLvb3

- Kd (recombinant human tau [2]): 3740 pM
- koff (recombinant human tau [2]): 0.0034 s⁻¹
- kon (recombinant human tau [2]): 910000 M⁻¹ s⁻¹
B7: Hu3D6VHvb4 / Hu3D6VLvb3 (antibody, V domains shown)
VH: B5 VH
VL: B6 VL
notes: Humanized 3D6 variant, expressed as intact antibody in HEK-293 cells; also called VHvb4/VLvb3

- Kd (recombinant human tau [2]): 40 pM
- koff (recombinant human tau [2]): 5.7e-05 s⁻¹
- kon (recombinant human tau [2]): 1.5e+06 M⁻¹ s⁻¹
B8: Hu3D6VHvb2 / Hu3D6VLvb2 (antibody, V domains shown)
VH: B5 VH with T17S, T28N, I59V, V68A, M81L, R87T, Y95F
VL: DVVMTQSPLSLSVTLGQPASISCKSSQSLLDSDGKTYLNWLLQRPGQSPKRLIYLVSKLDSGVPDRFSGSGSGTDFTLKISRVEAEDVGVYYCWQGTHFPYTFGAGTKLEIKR
notes: Humanized 3D6 variant, expressed as intact antibody in HEK-293 cells; also called VHvb2/VLvb2

- Kd (recombinant human tau [2]): 1400 pM
- koff (recombinant human tau [2]): 0.0028 s⁻¹
- kon (recombinant human tau [2]): 2e+06 M⁻¹ s⁻¹
B9: Hu3D6VHvb5 / Hu3D6VLvb3 (antibody, V domains shown)
VH: B5 VH with N55D, D57E
VL: B6 VL
notes: Humanized 3D6 variant, expressed as intact antibody in HEK-293 cells; also called VHvb5/VLvb3

- Kd (recombinant human tau [2]): 1440 pM
- koff (recombinant human tau [2]): 0.0026 s⁻¹
- kon (recombinant human tau [2]): 1.8e+06 M⁻¹ s⁻¹
B10: Hu3D6VHvb5 / Hu3D6VLvb2 (antibody, V domains shown)
VH: B5 VH with N55D, D57E
VL: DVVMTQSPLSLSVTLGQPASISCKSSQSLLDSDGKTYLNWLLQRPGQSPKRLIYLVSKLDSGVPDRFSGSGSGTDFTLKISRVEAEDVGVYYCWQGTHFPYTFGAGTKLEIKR
notes: Humanized 3D6 variant, expressed as intact antibody in HEK-293 cells; also called VHvb5/VLvb2

- Kd (recombinant human tau [2]): 1070 pM
- koff (recombinant human tau [2]): 0.0015 s⁻¹
- kon (recombinant human tau [2]): 1.4e+06 M⁻¹ s⁻¹
B11: Hu3D6VHvb3 / Hu3D6VLvb2 (antibody, V domains shown)
VH: B5 VH with T28N, V68A
VL: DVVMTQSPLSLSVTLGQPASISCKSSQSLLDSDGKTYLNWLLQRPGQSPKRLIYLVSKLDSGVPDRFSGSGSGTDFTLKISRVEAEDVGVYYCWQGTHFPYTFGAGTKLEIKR
notes: Humanized 3D6 variant, expressed as intact antibody in HEK-293 cells; also called VHvb3/VLvb2

- Kd (recombinant human tau [2]): 152 pM
- koff (recombinant human tau [2]): 0.000538 s⁻¹
- kon (recombinant human tau [2]): 3.54e+06 M⁻¹ s⁻¹
B12: Hu3D6VHvb6 / Hu3D6VLvb3 (antibody, V domains shown)
VH: B5 VH with N55D, D57E, I59V, Y95F
VL: B6 VL
notes: Humanized 3D6 variant, expressed as intact antibody in HEK-293 cells; also called VHvb6/VLvb3

- Kd (recombinant human tau [2]): 252 pM
- koff (recombinant human tau [2]): 0.000779 s⁻¹
- kon (recombinant human tau [2]): 3.09e+06 M⁻¹ s⁻¹
B13: Hu3D6VHvb7 / Hu3D6VLvb2 (antibody, V domains shown)
VH: B5 VH with N55D, D57E, I59V
VL: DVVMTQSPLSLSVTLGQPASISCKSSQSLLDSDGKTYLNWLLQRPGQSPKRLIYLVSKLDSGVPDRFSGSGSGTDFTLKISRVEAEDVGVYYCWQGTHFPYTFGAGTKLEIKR
notes: Humanized 3D6 variant, expressed as intact antibody in HEK-293 cells; also called VHvb7/VLvb2

- Kd (recombinant human tau [2]): 107 pM
- koff (recombinant human tau [2]): 0.000369 s⁻¹
- kon (recombinant human tau [2]): 3.45e+06 M⁻¹ s⁻¹
B14: Hu3D6VHvb6 / Hu3D6VLvb2 (antibody, V domains shown)
VH: B5 VH with N55D, D57E, I59V, Y95F
VL: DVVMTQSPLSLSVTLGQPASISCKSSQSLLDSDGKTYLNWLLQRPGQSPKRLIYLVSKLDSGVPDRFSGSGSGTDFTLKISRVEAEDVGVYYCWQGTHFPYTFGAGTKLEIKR
notes: Humanized 3D6 variant, expressed as intact antibody in HEK-293 cells; also called VHvb6/VLvb2

- Kd (recombinant human tau [2]): 209 pM
- koff (recombinant human tau [2]): 0.00077 s⁻¹
- kon (recombinant human tau [2]): 3.69e+06 M⁻¹ s⁻¹
B15: Hu3D6VHvb7 / Hu3D6VLvb3 (antibody, V domains shown)
VH: B5 VH with N55D, D57E, I59V
VL: B6 VL
notes: Humanized 3D6 variant, expressed as intact antibody in HEK-293 cells; also called VHvb7/VLvb3

- Kd (recombinant human tau [2]): 1130 pM
- koff (recombinant human tau [2]): 0.0018 s⁻¹
- kon (recombinant human tau [2]): 1.6e+06 M⁻¹ s⁻¹
B16: Hu3D6VHvb3 / Hu3D6VLvb3 (antibody, V domains shown)
VH: B5 VH with T28N, V68A
VL: B6 VL
notes: Humanized 3D6 variant, expressed as intact antibody in HEK-293 cells; also called VHvb3/VLvb3
